Where no end group is shown, it is not given here. [ ]: non-standard residue; d: D form. Gly(octyl) = CCCCCCCC[C@H](N)C(=O)O
What was measured:
NIH:Swiss mice = test: Food intake assay; assay type: in vivo, mouse; details: IP
Method: All mice (NIH:Swiss mice) are housed in a stable environment of 22 (±2)° C., 60 (±10)% humidity and a 12:12 light:dark cycle; with lights on at 0300. Mice are housed in groups of three in standard cages with ad libitum access to food (Teklad: LM 485; Madison, Wis.) and water except as noted, for at least two weeks before the experiments.
All experiments are conducted between the hours of 0700 and 0900. The mice are food deprived (food removed at 1530 hr from all animals on day prior to experiment). […] The food pellet is weighed at 30-minute, 1-hr, and 2-hr intervals to determine the amount of food eaten.
Significant test sample effects are identified by ANOVA (p<0.05). Where a significicant difference exists, test means are compared to the control mean using Dunnett's test. One-way ANOVA with Dunnett's post test is performed using GraphPad Prism version 3.01 for Windows, GraphPad Software, San Diego Calif.

NH/Swiss mice = test: Glucose lowering assay; assay type: in vivo, mouse; details: IP
Method: Female NH/Swiss mice (˜8-20 weeks of age), (Harlan, Indianapolis, Ind., USA), housed 3 mice per cage, are allowed ad libitum access to food and water until the start of the experiment. At two hours prior to treatment, access to food is restricted.
At the time of treatment, the tip of the tail is pricked with a needle to obtain 1 μl blood as a “pre-treatment” control blood sample. Immediately thereafter, each mouse is injected intraperitoneally (IP) with a test sample (1 nmol/kg or 2 nmol/kg) or 200 μl vehicle (10% DMSO saline). Additional blood samples are collected at 30, 60, 120, 180, and 240 minutes after injection.
Blood glucose is measured with a glucose oxidase biosensor (OneTouch® Ultra® (LifeScan, Inc., a Johnson & Johnson Company, Milpitas, Calif.)). At each time point, the effect of the test sample is expressed as the percent change in blood glucose relative to mice injected with vehicle only. Test samples and vehicle controls are also compared to their respective “pre-treatment” controls.
Significant test sample effects are identified by ANOVA (p<0.05). Where a significant difference existed, test means are compared to the control mean with Dunnett's post test using GraphPad Prism version 4.00 for Windows, GraphPad Software, San Diego Calif. USA, www.graphpad.com).

[1] = tested on: Sprague Dawley rats with MI-induced CHF; test: MI-induced CHF animal model; assay type: in vivo, rat; details: subcutaneous infusion 11 weeks
Method: Sprague Dawley rats undergo left coronary artery ligation to induce myocardial infarction (MI) and subsequently congestive heart failure. Some rats undergo sham surgery. Starting two weeks after coronary ligation, rats are treated with GLP-1 (2.5 or 25 pmol/kg/min), [Leu^14]-Exendin-4 amide (1.67 or 5 pmol/kg/min) or vehicle for 11 weeks via subcutaneous infusion. Cardiac function and remodeling are assessed by echocardiography. At the end of study, rats undergo treadmill testing, hemodynamic measurements and fasting (12 hour fasting) insulin and glucose concentration were measured and the Homeostasis Model Assessment (HOMA), a major index for insulin resistance, is calculated. Peak Oxygen uptake during exercise is measured by indirect calorimetry.
Transthoracic Doppler echocardiography is performed. Briefly, short-axis images are obtained at the papillary muscle level and 2D guided M-mode tracing are recorded at a speed of 100 mm/s. Left ventricular end-diastolic (LVEDD) and end-systolic dimensions (LVESD) are measured according the American Society for Echocardiography leading-edge method. Left atrial volume (LAV) and ejection fraction (LVEF) are measured and calculated from the long-axis view.
Pulsed-wave Doppler spectra of mitral inflow are obtained from apical 5-chamber view. The sample volume is placed at the tip of the mitral leaflets and adjusted to the position of maximal velocity. The peak of early (E) and late filling waves (A) are measured and E/A ratio are calculated. […] FIG. 2A-C. […]
Designations “L” and “H” indicate low and high dose of drug, respectively. […] The end point for treadmill test is determined by rat's inability to keep the pace of treadmill and land on the electric shock grid for over 6 seconds. The exercise capacity (EC) is calculated as EC (kgm)=Body weight (kg)×degree of grade×running distance. Oxygen consumption (VO2), carbon dioxide production (VCO2) are measured as described. Within 1 minute after the treadmill test, plasma lactate and glucose are measured. The treadmill test is run and analyzed by one investigator who is blinded to the study.

[2] = biological target: T1, GLP-1 receptor, endogenous in RINm5f cells (rat (RIN-m5F are called rat pancreas insulinoma cells)), P32301; test: cell-based or functional assay
T1 chain: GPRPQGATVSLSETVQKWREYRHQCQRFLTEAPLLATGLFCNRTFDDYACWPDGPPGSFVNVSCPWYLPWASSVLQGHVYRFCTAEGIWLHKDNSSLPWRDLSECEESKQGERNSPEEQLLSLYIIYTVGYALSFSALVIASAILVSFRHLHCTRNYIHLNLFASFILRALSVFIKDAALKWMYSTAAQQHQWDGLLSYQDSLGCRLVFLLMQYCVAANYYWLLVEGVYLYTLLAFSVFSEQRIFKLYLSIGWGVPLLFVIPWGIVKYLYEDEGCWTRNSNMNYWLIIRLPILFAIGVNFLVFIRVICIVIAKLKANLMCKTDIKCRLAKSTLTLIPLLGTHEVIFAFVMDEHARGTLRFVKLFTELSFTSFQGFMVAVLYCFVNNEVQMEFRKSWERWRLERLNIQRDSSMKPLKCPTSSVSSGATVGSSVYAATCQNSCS

[3] = biological target: T1, GLP-1 receptor, endogenous in RINm5f …; test: 125I-GLP-1 displacement, RINm5f membranes
[4] = biological target: T2, GLP-1 receptor, endogenous in RINm5f cells (rat (RIN-m5F are called rat pancreas …, UniProt P32301 22-463)); test: cell-based or functional assay
T2 sequence (looked up): T1 chain

[5] = biological target: T2, GLP-1 receptor, endogenous in RINm5f …; test: 125I-GLP-1 displacement, RINm5f membranes

CC[C@H](C)[C@H](NC(=O)[C@H](CC(C)C)NC(=O)[C@H](Cc1c[nH]c2ccccc12)NC(=O)[C@H](CCC(=O)O)NC(=O)[C@@H](NC(=O)[C@H](Cc1ccccc1)NC(=O)[C@H](CC(C)C)NC(=O)[C@H](CCCNC(=N)N)NC(=O)[C@@H](NC(=O)[C@H](C)NC(=O)[C@H](CCCCN)NC(=O)[C@H](CCC(=O)O)NC(=O)[C@H](CCC(=O)O)NC(=O)[C@H](CC(C)C)NC(=O)[C@H](CCC(N)=O)NC(=O)[C@H](CCCCN)NC(=O)[C@H](CO)NC(=O)[C@H](CC(C)C)NC(=O)[C@H](CC(=O)O)NC(=O)[C@H](CO)NC(=O)[C@@H](NC(=O)[C@H](Cc1ccccc1)NC(=O)[C@@H](NC(=O)CNC(=O)[C@H](CCC(=O)O)NC(=O)CNC(=O)[C@@H](N)Cc1c[nH]cn1)[C@@H](C)O)[C@@H](C)O)C(C)C)[C@@H](C)CC)C(=O)N[C@@H](CCC(N)=O)C(=O)NCC(=O)NCC(=O)N1CCC[C@H]1C(=O)N[C@@H](CO)C(=O)N[C@@H](CCCCN)C(=O)N[C@@H](CCC(=O)O)C(=O)N[C@H](C(=O)N[C@H](C(=O)N[C@@H](CO)C(=O)O)[C@@H](C)CC)[C@@H](C)CC [Cmpd 5103]
FOOD INTAKE at 60 min (NIH:Swiss mice; dose 10 nmol/kg): −42% | GLU LOWERING AUC240 @2 nmol/kg (NH/Swiss mice; 2 nmol/kg, change in blood glucose relative to vehicle): −17%

CC[C@H](C)[C@H](NC(=O)[C@H](Cc1ccccc1)NC(=O)[C@H](CCC(=O)O)NC(=O)[C@H](CCCCN)NC(=O)[C@H](C)NC(=O)[C@H](C)NC(=O)[C@H](CCC(N)=O)NC(=O)CNC(=O)[C@H](CCC(=O)O)NC(=O)[C@H](CC(C)C)NC(=O)[C@H](Cc1ccc(O)cc1)NC(=O)[C@H](CO)NC(=O)[C@H](CO)NC(=O)[C@@H](NC(=O)[C@H](CC(=O)O)NC(=O)[C@H](CO)NC(=O)[C@@H](NC(=O)[C@H](Cc1ccccc1)NC(=O)[C@@H](NC(=O)CNC(=O)[C@H](CCC(=O)O)NC(=O)[C@H](C)NC(=O)[C@@H](N)Cc1c[nH]cn1)[C@@H](C)O)[C@@H](C)O)C(C)C)C(=O)N[C@@H](C)C(=O)N[C@@H](Cc1c[nH]c2ccccc12)C(=O)N[C@@H](CC(C)C)C(=O)N[C@H](C(=O)N[C@@H](CCCCN)C(=O)NCC(=O)N[C@@H](CCCNC(=N)N)C(N)=O)C(C)C [Cmpd 3521, reference compound]
FOOD INTAKE at 60 min (NIH:Swiss mice; dose 1 mg/kg): −27% | GLU LOWERING AUC240 @80 nmol/kg (NH/Swiss mice; 80 nmol/kg): −9% @ | baseline plasma lactate level [1]: attenuated baseline plasma lactate level | left ventricle chamber size (LVEDD, LVESD) [1]: attenuates enlargement of left ventricle chamber size | insulin resistance / insulin sensitivity (fasting insulin, glucose, HOMA) ([1]; 12 hour fasting): attenuates insulin resistance and improves insulin sensitivity

HAEGTFTSDVSSYLEGQAAKEFIAWLVKGRGGG (not fully specified; modifications not checked) [Cmpd 4844, GLP-1-(7-37)-GG(S)-2,6-diamino-1-(thiazolidin-3-y1)hexan-1-one amide]
cAMP, CYCLASE GLP/GIP/CT (RIN) EC50 [2]: 130 pM

HAEGTFTSDVSSYLEGQAAKEFIAWLVKGRGGG (not fully specified; modifications not checked) [Cmpd 4845, GLP-1-(7-37)-GG-(S)-2,6-diamino-1-(thiazolidin-2-cyano-3-y1)hexan-1-one amide]
cAMP, CYCLASE GLP/GIP/CT (RIN) EC50 [2]: 400 pM

HAEGTFTSDVSSYLEGQAAKEFIAWLVKGRGGGGIPI (modifications not checked) [Cmpd 4887]
IC50 [3]: 170 pM | cAMP, CYCLASE GLP/GIP/CT (RIN) EC50 [2]: 220 pM

HAEGTFTSDVSSYLEGQAAKEFIAWLVKGRPSGGGIPI (modifications not checked) [Cmpd 4888]
IC50 [3]: 130 pM | cAMP, CYCLASE GLP/GIP/CT (RIN) EC50 [2]: 170 pM

HAEGTFTSDVSSYLEGQAAKEFIAWLVKGRGGGIPI (modifications not checked) [Cmpd 4957]
IC50 [3]: 100 pM | cAMP, CYCLASE GLP/GIP/CT (RIN) EC50 [2]: 510 pM

B1: Cmpd 5269 (peptide)
peptide: HGEGTFTSDLSKQLEEEAVRLFIEFLKNGKPKK[Gly(octyl)]RYS-OH
modifications: N-terminus assumed
SMILES: CCCCCCCC[C@H](NC(=O)[C@H](CCCCN)NC(=O)[C@H](CCCCN)NC(=O)[C@@H]1CCCN1C(=O)[C@H](CCCCN)NC(=O)CNC(=O)[C@H](CC(N)=O)NC(=O)[C@H](CCCCN)NC(=O)[C@H](CC(C)C)NC(=O)[C@H](Cc1ccccc1)NC(=O)[C@H](CCC(=O)O)NC(=O)[C@@H](NC(=O)[C@H](Cc1ccccc1)NC(=O)[C@H](CC(C)C)NC(=O)[C@H](CCCNC(=N)N)NC(=O)[C@@H](NC(=O)[C@H](C)NC(=O)[C@H](CCC(=O)O)NC(=O)[C@H](CCC(=O)O)NC(=O)[C@H](CCC(=O)O)NC(=O)[C@H](CC(C)C)NC(=O)[C@H](CCC(N)=O)NC(=O)[C@H](CCCCN)NC(=O)[C@H](CO)NC(=O)[C@H](CC(C)C)NC(=O)[C@H](CC(=O)O)NC(=O)[C@H](CO)NC(=O)[C@@H](NC(=O)[C@H](Cc1ccccc1)NC(=O)[C@@H](NC(=O)CNC(=O)[C@H](CCC(=O)O)NC(=O)CNC(=O)[C@@H](N)Cc1c[nH]cn1)[C@@H](C)O)[C@@H](C)O)C(C)C)[C@@H](C)CC)C(=O)N[C@@H](CCCNC(=N)N)C(=O)N[C@@H](Cc1ccc(O)cc1)C(=O)N[C@@H](CO)C(=O)O
notes: tested as C-terminal acid (-OH)
cAMP, CYCLASE GLP/GIP/CT (RIN) EC50 [4]: 1310 pM | IC50 [5]: 88 pM

HGEGTFTSDLSKQLEEEAVRLFIEWLKNPGGKEIIS (tested as C-terminal acid (-OH)) [Cmpd 5296]
cAMP, CYCLASE GLP/GIP/CT (RIN) EC50 [4]: 145 pM | IC50 [5]: 4000 pM

Source: US20100029554A1, “Composition and Methods for Treatment of Congestive Heart Failure” (Amylin Pharmaceuticals, Inc., priority 2006, published 2010)
